Assay [1] concerns the target T1, PAD4 (species not stated) (Homo sapiens (Human), UniProt Q9UM07 1-663, Biotinylated in the specificity ELISA. The SPR material was enzymatically biotinylated on an Avi-tag.).
T1 construct: Biotinylated in the specificity ELISA; monomer and dimer forms seen in iSCAT; also called biotinylated PAD4; not shown: Avi-tag and any purification tag on the recombinant PAD4
Briefly: specificity ELISA: biotinylated PAD on a streptavidin plate, detection with anti-human IgG Fc HRP, fluorescence (RFU); antibody concentration not given. In general terms: An ELISA detects its analyte on a solid surface through an enzyme-linked reagent.

Assay [2] has as its target T2, PAD2 (species not stated) (Homo sapiens (Human), UniProt Q9Y2J8 1-665, Biotinylated in the specificity ELISA. The SPR material was enzymatically biotinylated on an Avi-tag.).
T2 construct: Biotinylated in the specificity ELISA; also called biotinylated PAD2; not shown: Avi-tag and any purification tag on the recombinant PAD2
Described as above.

Assay [3] concerns the target T3, recombinant human PAD2 (human, UniProt Q9Y2J8 1-665, enzymatically biotinylated on an Avi-tag (when captured on the SPR chip)).
T3 construct: also called hPAD2; Human PAD2 (RD220)
Briefly: specificity ELISA: biotinylated PAD on a streptavidin plate, detection with anti-human IgG Fc HRP, Binding (RFU); antibody concentration not given.

In the next assay the target is T4, recombinant human PAD4 (human, UniProt Q9UM07 1-663, enzymatically biotinylated on an Avi-tag (when captured on the SPR chip)).
T4 construct: also called hPAD4; Human PAD4 (RD223)
Described as above.

A further assay concerns the target T5, huFcRn (human, UniProt P55899 24-297; P61769 21-119, limits assumed).
T5 construct: also called human neonatal Fc receptor
As to the kind of experiment: huFcRn affinity chromatography, pH gradient elution.

Assay [4] concerns the target T6, recombinant mouse PAD2 (mouse, UniProt Q08642 1-673).
T6 construct: Recombinant and tagged
As to the kind of experiment: ratio of SPR KDs, mouse PAD2 against human PAD2; biotinylated antibody captured on C1-streptavidin, PAD flowed over.

The target of assay [5] is T7, human PAD2, recombinant, tags at the N-terminus (human, UniProt Q9Y2J8 1-665, enzymatically biotinylated on an Avi-tag where captured on streptavidin).
T7 construct: not shown: N-terminal tags incl; Avi-tag
Briefly: SPR; biotinylated antibody on C1-streptavidin, PAD2 flowed over. On the technique in general: In SPR one partner is held on a chip, and binding of the other changes the refractive index at the surface.

For assay [6], the target named is T8, cynomolgus PAD2, recombinant, tags at the N-terminus (cynomolgus, UniProt G7NUR0 1-665, enzymatically biotinylated on an Avi-tag where captured on streptavidin).
T8 construct: also called Cyno PAD2; not shown: N-terminal tags incl; Avi-tag
The assay is described as above.

The target in assay [7] is T9, mouse PAD2, recombinant, tags at the N-terminus (mouse, UniProt Q08642 1-673, enzymatically biotinylated on an Avi-tag where captured on streptavidin).
T9 construct: not shown: N-terminal tags incl; Avi-tag
The description is as above.

In assay [8] the target is T7, human PAD2, recombinant, tags at the …. Described as above. This is another data set of the same source.
The target in assay [9] is T8, cynomolgus PAD2, recombinant, tags at …. The description is as above. The source holds these as a separate data set.
The target of assay [10] is T9, mouse PAD2, recombinant, tags at the …. Described as above. This is another data set of the same source.
The target in assay [11] is T3, recombinant human PAD2. As to the kind of experiment: SPR (Biacore 8K), N-terminally tagged against C-terminally tagged recombinant PAD2.
The target in assay [12] is T6, recombinant mouse PAD2. As to the kind of experiment: ratio of SPR KDs, mouse PAD2 against human PAD2; biotinylated PAD captured on C1-streptavidin, antibody flowed over.
Assay [13] concerns the target T7, human PAD2, recombinant, tags at the …. As to the kind of experiment: SPR; biotinylated PAD2 on C1-streptavidin, antibody flowed over.
For assay [14], the target named is T8, cynomolgus PAD2, recombinant, tags at …. The description is as above.
Assay [15] deals with T9, mouse PAD2, recombinant, tags at the …. The description is as above.
In assay [16] the target is T7, human PAD2, recombinant, tags at the …. Described as above. This is another data set of the same source.
Assay [17] has as its target T8, cynomolgus PAD2, recombinant, tags at …. The description is as above. This is another data set of the same source.
The target of assay [18] is T9, mouse PAD2, recombinant, tags at the …. Described as above. The source holds these as a separate data set.

B1: R347 Bis3 FQQYTE (antibody, human IgG1, lambda)
light chain: ELVLTQPASVSGSPGQSITISCTGTSSDVGGYNYVSWYQQHPGKAPKLMIYDVSKRPSGVSNRFSGSKSGNTASLTISGLQAEDEADYYCSSYTSSSTLVFGGGTKLTVLGQPKAAPSVTLFPPSSEELQANKATLVCLISDFYPGAVTVAWKADSSPVKAGVETTTPSKQSNNKYAASSYLSLTPEQWKSHRSYSCQVTHEGSTVEKTVAPTECS
heavy chain with C-terminal scFv: EVQLLESGGGLVQPGGSLRLSCTTSGFTFNTYAMSWVRQAPGKGLEWLSGINNNGRTAFYADSVKGRFTISRDNSKNTLYLQINSLRADDTAVYFCAKDVRFIAVPGDSWGQGTLVTVSSASTKGPSVFPLAPSSKSTSGGTAALGCLVKDYFPEPVTVSWNSGALTSGVHTFPAVLQSSGLYSLSSVVTVPSSSLGTQTYICNVNHKPSNTKVDKRVEPKSCDKTHTCPPCPAPEFQGGPSVFLFPPKPKDTLYITREPEVTCVVVDVSHEDPEVKFNWYVDGVEVHNAKTKPREEQYNSTYRVVSVLTVLHQDWLNGKEYKCQVSNKALPAPIEKTISKAKGQPREPQVYTLPPSREEMTKNQVSLTCLVKGFYPSDIAVEWESNGQPENNYKTTPPVLDSDGSFFLYSKLTVDKSRWQQGNVFSCSVMHEALHNHYTQKSLSLSPGKGGGGSGGGGSEVQLLESGGGLVQPGGSLRLSCTTSGFTFNTYAMSWVRQAPGKGLEWLSGINNNGRTAFYADSVKGRFTISRDNSKNTLYLQINSLRADDTAVYFCAKDVRFIAVPGDSWGQGTLVTVSSGGGGSGGGGSGGGGSGGGGSELVLTQPASVSGSPGQSITISCTGTSSDVGGYNYVSWYQQHPGKAPKLMIYDVSKRPSGVSNRFSGSKSGNTASLTISGLQAEDEADYYCSSYTSSSTLVFGGGTKLTVL
notes: also called Bis3 control (R347)
Regarding B1, the binding result (in assay [1]; in assay [2]; with recombinant human PAD2 [3]; with recombinant human PAD4) was “no binding” in each case.

B2: Clone 12 (Bis3, FQQ-YTE; Fab anti-PAD2, scFv anti-PAD4) (bispecific antibody, human IgG1, lambda)
heavy: not shown
light: SYVLTQPPSVSVSPGQTASITCSGDKVGDKYVSWYQQKPGQSPVLVIYQDSQRPSGIPERFSGSNSGNTATLTISGTQAMDEADYYCQTWAPDVLLFGSGTKVTVLGQPKAAPSVTLFPPSSEELQANKATLVCLISDFYPGAVTVAWKADSSPVKAGVETTTPSKQSNNKYAASSYLSLTPEQWKSHRSYSCQVTHEGSTVEKTVAPTECS
notes: Bivalent bispecific IgG-HC-scFv; also called PAD240012; Bis3 = scFv (PAD4)-Fab(PAD2)
Turning to B2, in the assay with huFcRn, the “HPLC retention” value stood at 22.8 min and the Relative retention came out at 0.746. The “fold difference in KD, mouse/human” value in the assay with recombinant mouse PAD2 [4] stood at 2.1 fold.

B3: Clone 12, Bis3 anti-PAD2 Fab / anti-PAD4 scFv, Fc FQQ-YTE (bispecific antibody, human IgG1, lambda)
heavy: not shown
light: B2 light
notes: Bivalent for PAD2 and for PAD4; In the rows marked ^# the antibody was chemically biotinylated; also called PAD240012
What is called Kd is the constant that tells how readily two partners part at equilibrium. The term koff denotes the rate constant with which the complex falls apart. Usually kon stands for a measure of how fast the partners come together. For B3, the Kd in [5] turned out to be 6.76 pM; in assay [6] it was 13.8 pM; in assay [7] it was 14.2 pM; in [8] it was 6.76 pM; in [9], 13.8 pM; in assay [10] it was 14.2 pM. Moreover, the koff in assay [8] was 4.05e-05 s⁻¹; in assay [9], 5.74e-05 s⁻¹; in assay [10], 6.89e-05 s⁻¹. For the same molecule, the kon was 5.6e+06 M⁻¹ s⁻¹ in assay [8], 4.19e+06 M⁻¹ s⁻¹ in [9] and 4.85e+06 M⁻¹ s⁻¹ in assay [10].

B4: Clone 22 (141LO0035 hIgG1 pgl-4), anti-PAD2, as Fab (Fab, V domains shown)
VH: not shown
VL: SYVLTQPPSVSVSPGQTASITCSGDKVGDKYVSWYQQKPGQSPVLVIYQDSQRPSGIPERFSGSNSGNTATLTISGTQAMDEADYYCQTWAPDVLLFGSGTKVTVL
notes: also called Clone 22 (Fab); anti-PAD2 Fab
Take B4: the “fold higher affinity than in the previous assay (Table 69)” value with recombinant human PAD2 [11] was found to be 10 fold.

B5: Clone 22 (Fab) (141LO0035 hIgG1 pgl-4) (Fab, V domains shown)
VH: not shown
VL: B4 VL
notes: Tested as a Fab; Only the variable domains are tied to Clone 22; also called anti-PAD2 Fab
B5: in the assay with recombinant mouse PAD2 [12], the “fold difference in KD, mouse/human” value turned out to be 10 fold.

B6: anti-PAD2 Clone 22 (141LO0035 hIgG1 pgl-4), Fab (Fab, V domains shown)
VH: not shown
VL: B4 VL
notes: Tested as Fab; also called Clone 22 (Fab)
For B6, the Kd was determined as 13.1 pM in assay [13]; 29.2 pM in assay [14]; 131 pM in [15]; 13.1 pM in [16]; 29.2 pM in [17]; 131 pM in assay [18]. Moreover, the koff was determined as 4.77e-05 s⁻¹ in assay [13], 7.03e-05 s⁻¹ in assay [14] and 0.000462 s⁻¹ in assay [15]. In addition, the values for the kon in assay [13], in [14] and in assay [15] were 3.67e+06 M⁻¹ s⁻¹, 2.39e+06 M⁻¹ s⁻¹ and 3.59e+06 M⁻¹ s⁻¹, respectively.

These data come from patent US20240199761A1 (AstraZeneca / MedImmune, published 2024).
